US20180037641A1

Target: P301S human tau, T34 isoform (1N4R), of P301S tg mice (line PS19) (human) (UniProt P10636)
Experiment: cell-based or functional assay

P301S human tau, T34 isoform (1N4R), of P301S tg mice (line PS19) (human), sequence (P10636 other isoform, or with tags, fused parts or gaps P301S P301S P301S P301S): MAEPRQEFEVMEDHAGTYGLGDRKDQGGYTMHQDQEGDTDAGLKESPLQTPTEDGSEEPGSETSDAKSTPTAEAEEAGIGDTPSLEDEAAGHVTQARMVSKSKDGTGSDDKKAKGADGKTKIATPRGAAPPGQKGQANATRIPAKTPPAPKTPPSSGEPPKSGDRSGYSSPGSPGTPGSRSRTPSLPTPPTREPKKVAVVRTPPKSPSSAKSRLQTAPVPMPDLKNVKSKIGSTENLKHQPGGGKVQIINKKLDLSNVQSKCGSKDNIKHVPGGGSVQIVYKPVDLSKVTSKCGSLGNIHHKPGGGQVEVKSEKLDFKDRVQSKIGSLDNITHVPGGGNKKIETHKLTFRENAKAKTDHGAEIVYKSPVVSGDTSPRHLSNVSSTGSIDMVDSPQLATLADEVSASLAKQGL

B1: HJ8.5 (antibody, V domains shown)
VH: EVKVEESGGGLVQPGGSMKLSCVVSGFTFSNYWVNWVRQSPEKGLEWVAQIRLKSDNYATHYEESVKGRFTISRDDSKSSVYLQMNNLRAEDSGIYYCTNWEDYWGQGTTLTVSS
VL: DIVLTQSPASLAVSLGQRATISCRASQSVSTSRYSYIHWYQQKPGQPPKLLIKYASNLESGVPARFSGSGSGTDFTLNIHPLEEEDAATYYCHHSWEIPLTFGAGTKLELK
antibody concentration that significantly blocked uptake and seeding activity: 0.5 µg/mL
lowest antibody concentration that blocked seeding activity (titration against a fixed amount of P301S brain lysate): 0.25 µg/mL
